We go through three molecules from patent publication US20120308574A1 (HANWHA CHEMICAL, published 2012).

By Kd is commonly meant the concentration at which binding is half-saturated.

Experiment [1] deals with T1, mVCAM-1-Fc chimera (R&D systems, Cat# 643-VM) (mouse, UniProt P29533 25-698).
T1 construct: Bought product; also called Mouse VCAM-1 antigen; mouse antigen; Fc part of the bought chimera not given
T1 sequence (looked up): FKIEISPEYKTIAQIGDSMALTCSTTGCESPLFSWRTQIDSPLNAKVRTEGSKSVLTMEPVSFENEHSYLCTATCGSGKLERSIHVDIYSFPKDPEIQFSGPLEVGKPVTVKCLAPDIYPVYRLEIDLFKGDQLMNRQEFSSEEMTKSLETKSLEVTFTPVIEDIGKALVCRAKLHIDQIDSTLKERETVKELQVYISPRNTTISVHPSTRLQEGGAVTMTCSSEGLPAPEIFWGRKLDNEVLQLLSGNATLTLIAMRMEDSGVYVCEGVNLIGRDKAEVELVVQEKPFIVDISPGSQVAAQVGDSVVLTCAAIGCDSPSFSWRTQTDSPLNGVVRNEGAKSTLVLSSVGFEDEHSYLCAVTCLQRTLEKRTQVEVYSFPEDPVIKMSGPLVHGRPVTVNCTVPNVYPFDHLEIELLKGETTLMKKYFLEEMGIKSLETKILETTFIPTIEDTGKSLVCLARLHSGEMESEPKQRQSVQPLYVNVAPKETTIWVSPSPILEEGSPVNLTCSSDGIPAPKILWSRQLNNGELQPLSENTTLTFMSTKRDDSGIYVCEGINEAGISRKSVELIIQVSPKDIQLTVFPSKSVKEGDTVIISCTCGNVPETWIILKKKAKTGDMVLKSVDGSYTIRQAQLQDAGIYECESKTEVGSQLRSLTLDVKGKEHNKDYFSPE
Description: SPR (BIACORE), VCAM-1/Fc immobilised on CM5 chip, antibody as analyte, 1:1 binding model. The protocol:
(§1) 1 mg/Ml of ligand to be immobilized was diluted in 97 μl of each sodium acetate solution (varying within the pH range from 4.0 to 5.5) at a dilution ratio of 3/100, and then applied at a flow rate of 10 μl/min for about 3 min (as a negative control, the ligand was diluted using a running buffer, HBS-EP buffer (BIACORE AB, Sweden) in the same manner). In order to immobilize the ligand at a predetermined value target RU (resonance unit), serial injection was carried out automatically, until reaching target RU. The ligand-immobilized chip was inactivated by injection of 1M ethanolamine (Amine Coupling Kit, BR-1000-50) at a flow rate of 10 μl/min for about 3 min. The final RU was determined by an immobilization report which provides a difference in RU values before and after injection of ethanolamine.
(§2) A flow cell2-flow cell mode provided by BIACORE instrument was employed in this experiment in order to remove non-specific binding. At this time, a recombinant VCAM1/Fc antigen was immobilized as a ligand to the flow cell2, and BSA (Bovine Serum Albumin) was immobilized to the flow cell. Then, each of the anti VCAM-1 antibodies 4B, 7C and 7H as the analyte were applied to flow cell 1 and 2, simultaneously. The sensogram RU of flow cell was automatically subtracted from the sensogram RU of flow cell2. Subsequently, the analytes were applied at a flow rate of 30 μl/min for about 3 min, and then dissociation was induced for 120 sec. Through this procedure, an association/dissociation curve of the corresponding antigen and antibody was obtained, and an association/dissociation constant KD was calculated by BIAevaluation program (BIACORE AB, Sweden), as shown in the following Table 2.
(§3) The above Table 2 represents the binding capacity or affinity of human and mouse VCAM-1 antigen-specific anti VCAM-1 human monoclonal antibodies to antigen, and a protein affinity analyzer, BIACORE (BIACORE AB, Sweden) was used to analyze a species specific antigen-antibody affinity to the biologically different species, human and mouse antigens. The affinity constant KD value of corresponding antigen-antibody was calculated in a 1:1 binding mode.
In general terms: Surface plasmon resonance follows binding to a sensor surface in real time, without labels.

Experiment [2] addresses T2, recombinant human VCAM-1 domain 1~7/Fc chimera (R&D, 862-VC) (human, UniProt P19320 25-698).
T2 construct: domain: domain 1~7; Bought product; also called VD7; hVCAM-Fc-chimera; Fc part of the bought chimera not given
T2 sequence (looked up): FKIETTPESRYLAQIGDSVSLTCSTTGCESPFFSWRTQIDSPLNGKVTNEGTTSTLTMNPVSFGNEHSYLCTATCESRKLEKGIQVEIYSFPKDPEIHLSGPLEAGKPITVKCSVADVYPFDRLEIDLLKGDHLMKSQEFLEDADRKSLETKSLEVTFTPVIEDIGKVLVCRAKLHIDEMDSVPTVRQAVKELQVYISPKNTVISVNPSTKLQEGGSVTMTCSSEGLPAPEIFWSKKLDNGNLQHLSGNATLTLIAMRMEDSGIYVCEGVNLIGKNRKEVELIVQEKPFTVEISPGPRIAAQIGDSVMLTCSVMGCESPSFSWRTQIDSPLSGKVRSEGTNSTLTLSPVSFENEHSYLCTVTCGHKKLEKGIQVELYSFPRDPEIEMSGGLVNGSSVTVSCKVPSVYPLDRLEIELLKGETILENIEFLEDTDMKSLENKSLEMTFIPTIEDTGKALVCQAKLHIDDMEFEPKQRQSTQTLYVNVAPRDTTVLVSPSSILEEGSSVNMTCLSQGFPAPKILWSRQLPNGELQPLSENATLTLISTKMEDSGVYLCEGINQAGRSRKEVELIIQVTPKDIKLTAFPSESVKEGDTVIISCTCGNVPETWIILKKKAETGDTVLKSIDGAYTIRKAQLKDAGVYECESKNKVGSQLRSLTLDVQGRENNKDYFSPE
Described as above. The protocol:
as §1, §2, §3

Experiment [3] concerns the target T3, recombinant human VCAM-1 (Cat. No. 809-VR-200, R&D systems) (human, UniProt P19320 25-698, limits assumed).
T3 sequence (looked up): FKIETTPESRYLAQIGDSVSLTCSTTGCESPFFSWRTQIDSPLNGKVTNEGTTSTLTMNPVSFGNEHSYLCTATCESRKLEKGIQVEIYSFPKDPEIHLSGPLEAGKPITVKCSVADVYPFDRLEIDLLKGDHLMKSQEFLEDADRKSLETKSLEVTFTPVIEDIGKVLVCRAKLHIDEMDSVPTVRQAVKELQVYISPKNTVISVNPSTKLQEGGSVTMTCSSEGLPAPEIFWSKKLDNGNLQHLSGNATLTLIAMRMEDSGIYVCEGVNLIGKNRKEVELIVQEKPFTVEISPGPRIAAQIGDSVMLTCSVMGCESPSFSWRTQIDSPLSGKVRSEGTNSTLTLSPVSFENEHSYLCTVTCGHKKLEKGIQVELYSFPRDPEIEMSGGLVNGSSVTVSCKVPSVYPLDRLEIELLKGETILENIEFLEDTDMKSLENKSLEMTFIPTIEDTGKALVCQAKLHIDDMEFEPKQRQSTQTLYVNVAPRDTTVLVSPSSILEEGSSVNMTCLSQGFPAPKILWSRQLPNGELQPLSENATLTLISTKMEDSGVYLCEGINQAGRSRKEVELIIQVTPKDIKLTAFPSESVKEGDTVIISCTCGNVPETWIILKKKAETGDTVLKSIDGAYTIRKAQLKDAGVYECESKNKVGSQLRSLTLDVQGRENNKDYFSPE
Nature of the experiment: cell-based or functional assay.

Experiment [4] deals with T2, recombinant human VCAM-1 domain 1~7/Fc …. Description: SPR (BIACORE), VCAM-1/Fc immobilised, antibody as analyte. As to the method: as §1, with “For ligand immobilization to the sensor chip CM5, the chip should be first activated with a mixture of N-hydroxysuccinimide (NHS) and […] (EDC) (Amine Coupling Kit, BR-1000-50) to prepare a NHS-ester-activated chip surface being highly reactive to an amino group. 1 mg/Ml” for “1 mg/Ml”, “target RU. […] The final” for “target RU. The ligand-immobilized chip was inactivated by injection of 1M ethanolamine (Amine Coupling Kit, BR-1000-50) at a flow rate of 10 μl/min for about 3 min. The final”
(§4) A flow cell2-flow cell mode provided by BIACORE instrument was employed in this experiment in order to remove non-specific binding. […] Through this procedure, an association/dissociation curve of the corresponding antigen and antibody was obtained, and an association/dissociation constant KD was calculated by BIAevaluation program (BIACORE AB, Sweden), as shown in the following Table 2.

Experiment [5] concerns the target T1, mVCAM-1-Fc chimera (R&D systems, Cat# …). Description: SPR (BIACORE), VCAM-1/Fc immobilised on CM5 chip, antibody as analyte. The protocol: as §1, with “For ligand immobilization to the sensor chip CM5, the chip should be first activated with a mixture of N-hydroxysuccinimide (NHS) and […] (EDC) (Amine Coupling Kit, BR-1000-50) to prepare a NHS-ester-activated chip surface being highly reactive to an amino group. 1 mg/Ml” for “1 mg/Ml”, “target RU. […] The final” for “target RU. The ligand-immobilized chip was inactivated by injection of 1M ethanolamine (Amine Coupling Kit, BR-1000-50) at a flow rate of 10 μl/min for about 3 min. The final”
as §4

B1: anti VCAM-1 human monoclonal antibody 7H (antibody, V domains shown)
VH: QMQLVQSGGDLVKPGESLRLSCAASGFTFNDAWMTWVRQPPGKGLEWVGRIKSTTDGGTTNYAAPVEGRFTISRDDSKNTLYLEMNSLRAEDTAVYYCARIPLFNHDSGGYHGAFDIWGQGTMVTVSS
VL: DIQMTQSPSSLAVSLGERATINCKSSQSVLYSSNNKNYLAWYQQKPGQPPKLLIYWASTRESGVPDRFSGSGSGTDFTLTISSLQPEDFASYYCQESYSAPYTFGQGTKVEIKR
Take B1: the Kd in experiment [1] stood at 10.7 nM; in experiment [2], 5.44 nM. Further, the “inhibition of adhesion of fluorescence-labelled U937 leukocytes to coated human VCAM-1 (reduction in fluorescence intensity)” value in experiment [3] worked out at 90%.

B2: anti VCAM-1 human monoclonal antibody 4B (antibody, V domains shown)
VH: QMQLVESGGGLVQPGGSLRLSCAASGFTFSSYGVSWVRQAPGKGLEWVSRISGSGGSTYYADSVKGRFTISRDNSKSTLYLQMNSLRAEDTAVYYCARPIFYGGNSAFDSWGQGTLVTVSS
VL: QLVLTQPPSVSAAPGQKVTISCSGSSSNIGNNFVSWYQHLPGTAPKLLIYDNNKRPSGIPDRFSGSKSGTSATLGIAGLQTGDDADYYCGTWDSSLSAYVFGTGAKVTVL
notes: Tested as full IgG converted from an scFv phage clone and expressed in CHO-S (about 55 kDa heavy chain, about 25 kDa light chain)
Consider B2, for which the dissociation constant (Kd) in experiment [2] is 0.5 nM; in experiment [4] it was approximately 1 nM. Moreover, in experiment [3], the “inhibition of adhesion of fluorescence-labelled U937 leukocytes to coated human VCAM-1 (reduction in fluorescence intensity)” value amounted to 80%. In addition, the binding result in experiment [5] is recorded as “no binding”.

B3: anti VCAM-1 human monoclonal antibody 7C (antibody, V domains shown)
VH: QVQLVESGGGVVQPGGSLRLSCAASGFTFDDYAMHWVRQAPGKGLEWVSLISGDGTDTYYADSVKGRFTISRDNSKNSLYLQMNSLRAEDTAVYYCAKRGYSYLGALDGWGQGTKITVSS
VL: QLVLTQSPSVSVAPGQTARITCGGDNIGRESVHWYQQKAGQAPVLVIYYDSDRPSGIPERFSGSNSGNTATLTISWVDAGDEADYYCQVWDSSSDHVVFGGGTKLTVL
For the molecule B3, the equilibrium dissociation constant (Kd) was determined as 36.9 nM in experiment [1] and 38.8 nM in experiment [2]. Moreover, the “inhibition of adhesion of fluorescence-labelled U937 leukocytes to coated human VCAM-1 (reduction in fluorescence intensity)” value in experiment [3] came out at 90%.
